B1: Mutant 20 R74Y L171A R183W: R74Y L171A R183W mutant of codon optimised cytochrome SriC12, SEQ ID NO: 255 (protein)
chain: MTEALPFPQDRTCPYDPPAGYQPLRDSRPLSRVTLYDGRPAWVVTGHAESRALLTDPRLSADRQNPAFPSPAPYFETLRKVRTPLLGVDDPEHNTQRRMLIPSFSVKRAAALRPRIQEIVDRLLDAMEQQGPPAELVSAFALPVPSMVICALLGVPYADHELFEGLSRTLAQSADPQEVTEAWDKLEDYFTALVERKRKEPGDGLLDELIAERLDSGELGHRELVRMAMLLLVAGHETTSNMLSLGTFTLLEHPEQFAALRADPSLLPAAVEELLRFLSIADGMVRVATEDIEIGGVTIRADDGVIFSTSVVNRDGAAYASPDTLDWERSARHHVAFGFGVHQCLGQNLARAEMEIAFGALFARFPGLRLAVPAAEIPVKPAHALQGLVELPVTW
modifications: R74Y L171A R183W mutant of SriC12
B2: Mutant 2 R63Y: R63Y mutant of codon optimised cytochrome SriC12, SEQ ID NO: 233 (protein)
chain: MTEALPFPQDRTCPYDPPAGYQPLRDSRPLSRVTLYDGRPAWVVTGHAESRALLTDPRLSADYQNPAFPSPAPRFETLRKVRTPLLGVDDPEHNTQRRMLIPSFSVKRAAALRPRIQEIVDRLLDAMEQQGPPAELVSAFALPVPSMVICALLGVPYADHELFEGLSRTLLQSADPQEVTEARDKLEDYFTALVERKRKEPGDGLLDELIAERLDSGELGHRELVRMAMLLLVAGHETTSNMLSLGTFTLLEHPEQFAALRADPSLLPAAVEELLRFLSIADGMVRVATEDIEIGGVTIRADDGVIFSTSVVNRDGAAYASPDTLDWERSARHHVAFGFGVHQCLGQNLARAEMEIAFGALFARFPGLRLAVPAAEIPVKPAHALQGLVELPVTW
modifications: R63Y mutant of SriC12
B3: Mutant 22 R63W R74Y L171A: R63W R74Y L171A mutant of codon optimised cytochrome SriC12, SEQ ID NO: 257 (protein)
chain: MTEALPFPQDRTCPYDPPAGYQPLRDSRPLSRVTLYDGRPAWVVTGHAESRALLTDPRLSADWQNPAFPSPAPYFETLRKVRTPLLGVDDPEHNTQRRMLIPSFSVKRAAALRPRIQEIVDRLLDAMEQQGPPAELVSAFALPVPSMVICALLGVPYADHELFEGLSRTLAQSADPQEVTEARDKLEDYFTALVERKRKEPGDGLLDELIAERLDSGELGHRELVRMAMLLLVAGHETTSNMLSLGTFTLLEHPEQFAALRADPSLLPAAVEELLRFLSIADGMVRVATEDIEIGGVTIRADDGVIFSTSVVNRDGAAYASPDTLDWERSARHHVAFGFGVHQCLGQNLARAEMEIAFGALFARFPGLRLAVPAAEIPVKPAHALQGLVELPVTW
modifications: R63W R74Y L171A mutant of SriC12
B4: Mutant 1 R63W: R63W mutant of codon optimised cytochrome SriC12, SEQ ID NO: 231 (protein)
chain: MTEALPFPQDRTCPYDPPAGYQPLRDSRPLSRVTLYDGRPAWVVTGHAESRALLTDPRLSADWQNPAFPSPAPRFETLRKVRTPLLGVDDPEHNTQRRMLIPSFSVKRAAALRPRIQEIVDRLLDAMEQQGPPAELVSAFALPVPSMVICALLGVPYADHELFEGLSRTLLQSADPQEVTEARDKLEDYFTALVERKRKEPGDGLLDELIAERLDSGELGHRELVRMAMLLLVAGHETTSNMLSLGTFTLLEHPEQFAALRADPSLLPAAVEELLRFLSIADGMVRVATEDIEIGGVTIRADDGVIFSTSVVNRDGAAYASPDTLDWERSARHHVAFGFGVHQCLGQNLARAEMEIAFGALFARFPGLRLAVPAAEIPVKPAHALQGLVELPVTW
modifications: R63W mutant of SriC12

Assay: Concentration of cytochrome P450 in cell-free extract by carbon monoxide difference spectrum (Omura and Sato)
Details: mutant P450SriC12 expressed in E. coli BL21 (DE3)
Protocol: Measurement is performed according to the method of Omura and Sato et al. (J Biol Chem, 239. 1964, 2370). That is to say, cytochrome P450 is analyzed quantitatively using the following formula, based on the difference in the absorbance of the reduced CO versus the reduced difference spectrum at 450 nm and 490 nm.
Measurement of the concentration of cytochrome P450 were performed according to the method of Omura and Sato et al. (J Biol Chem, 239. 1964, 2370). Cytochrome P450 concentrations of cell-free extracts of induced E. coli BL21 (DE3) Rosetta2 & Tuner cells harbouring either pHD05-SriC01, pHD02-SriC12-SriF05, pHD05-SriC14-SriF06, pHD05-SriC20, pHD05-SriC22 or pHD05-SriC51-SriF08 are shown in Table 2. Carbon monoxide difference spectra for P450SriC01, P450SriC12, P450SriC14, P450SriC20, P450SriC22 and P450SriC51 are shown in FIGS. 9, 10, 11, 19, 20 & 21 respectively.
The native and codon optimised P450sriC12 and ferredoxinsriF05 in pHD02-SriC12-SriF05 and pHD02-SriC12CO-SriF05CO respectively were introduced into E. coli BL21 (DE3). The recombinant strains were cultured and proteins were induced as in Example 2. The cell-free extract material was obtained as in Example 3 and carbon monoxide difference spectrums were measure to calculate the concentration of cytochrome P450.
The resulting plasmids containing the new mutants genes were transformed into recombinant E. coli strains for expression as described in Example 1, cultured and induced as described in Example 2, extracted and processed as described in Example 3 and tested for biocatalytic activity as described in Example 5 above. The carbon monoxide difference spectrum result of R63W mutant of codon optimised P450SriC12 is shown in FIG. 14 and the cytochrome P450 concentration of mutant P450SriC12 are shown in Table 5.
For B1, the P450 concentration was 14.1 µM. In the case of B2, the P450 concentration is reported as 6.2 µM. Molecule B3 has a P450 concentration of 19.9 µM. Molecule B4 has a P450 concentration of 17.6 µM.
